Patent publication US20230357340A1 (APRILBIO, published 2023)

How the values were obtained:
recombinant human IL-18 [1] = target: T1, recombinant human IL-18 (human, UniProt Q14116 37-193); test: SPR, BiaCore T200, APB-R3 amine-coupled on CM5 chip, human IL-18 as analyte, 1:1 fit
T1 construct: also called recombinant human IL-18 protein
T1 sequence (looked up): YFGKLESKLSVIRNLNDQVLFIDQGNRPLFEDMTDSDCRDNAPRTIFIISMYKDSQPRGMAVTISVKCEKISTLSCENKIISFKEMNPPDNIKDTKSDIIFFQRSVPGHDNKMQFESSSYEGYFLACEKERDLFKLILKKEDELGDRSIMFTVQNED
Experimental: (§1) Surface Plasmon Resonance (SPR) assay was performed by Wide River Institute of Immunology (Seoul National University, Seoul, KR) to measure the binding affinity, equilibrium dissociation constant (KD), of APB-R3 to recombinant human IL-18 (Prospec) and human serum albumin (Sigma) by using BiaCore™ T200 (GE Healthcare), Sensor Chip CM5 (Cytiva), and HBS-EP+(Cytiva), as a running buffer. APB-R3 was immobilized by using Amine Coupling Kit (GE Healthcare) in pH 4.5 and the analyte of human IL-18 was diluted and prepared at 62.5 nM, 31.3 nM, 15.6 nM, 7.8 nM, 3.9 nM, and 1.95 nM, and the analyte of human serum albumin was diluted and prepared at 1,250 nM, 625 nM, 313 nM, 156 nM, 78 nM, 39 nM, and 19.5 nM. Kinetics between APB-R3 and human IL-18 or human serum albumin was analyzed by 1:1 binding fitting.

recombinant human IL-18 [2] = target: T1, recombinant human IL-18; test: cell-based or functional assay
[3] = target: T2, recombinant mouse IL-18 protein (mouse, UniProt P70380 36-192); test: cell-based or functional assay
T2 sequence (looked up): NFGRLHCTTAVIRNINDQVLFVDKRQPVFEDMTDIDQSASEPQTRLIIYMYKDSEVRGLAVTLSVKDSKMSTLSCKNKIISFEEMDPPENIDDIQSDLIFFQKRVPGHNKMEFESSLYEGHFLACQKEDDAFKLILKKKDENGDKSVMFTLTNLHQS

human serum albumin = target: T3, human serum albumin (human, UniProt P02768 25-609); test: SPR, BiaCore T200, APB-R3 amine-coupled on CM5 chip, human serum albumin as analyte, 1:1 fit
T3 construct: also called HSA; Human serum albumin (Sigma)
Experimental: as §1

recombinant human IL-18 [4] = target: T1, recombinant human IL-18; test: SPR KD of this filing compared with a literature BIAcore value (Kim et al. 2000)
Experimental: as §1

T3 sequence (P02768 25-609 limits assumed): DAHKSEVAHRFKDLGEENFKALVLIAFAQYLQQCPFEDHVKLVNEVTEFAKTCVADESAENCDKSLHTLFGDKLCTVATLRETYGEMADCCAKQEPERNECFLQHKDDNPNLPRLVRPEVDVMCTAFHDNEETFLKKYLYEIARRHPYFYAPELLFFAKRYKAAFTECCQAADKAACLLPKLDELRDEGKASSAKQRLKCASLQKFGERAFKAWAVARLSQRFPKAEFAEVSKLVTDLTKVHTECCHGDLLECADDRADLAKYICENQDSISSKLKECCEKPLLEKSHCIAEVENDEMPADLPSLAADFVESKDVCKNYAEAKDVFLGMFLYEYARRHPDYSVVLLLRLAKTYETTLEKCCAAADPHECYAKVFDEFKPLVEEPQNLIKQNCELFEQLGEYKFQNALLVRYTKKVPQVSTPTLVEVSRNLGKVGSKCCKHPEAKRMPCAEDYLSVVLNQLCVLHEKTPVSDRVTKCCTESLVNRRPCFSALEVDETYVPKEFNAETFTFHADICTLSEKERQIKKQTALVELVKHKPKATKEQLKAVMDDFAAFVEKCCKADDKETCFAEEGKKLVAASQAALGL

B1: APB-R3 (recombinant fusion protein of anti-serum albumin Fab SL335 and human IL-18BP; heavy chain SL335H-peptide linker-IL-18BP, light chain SL335L) (other)
heavy: QVQLVQSGGGPVKPGGSLRLSCAASGFMFRAYSMNWVRQAPGKGLEWVSSISSSGRYIHYADSVKGRFTISRDNAKNSLYLQMNSLRAEDTAVYYCARETVMAGKALDYWGQGTLVTVSSASTKGPSVFPLAPSSKSTSEGTAALGCLVKDYFPEPVTVSWNSGALTSGVHTFPAVLQSSGLYSLSSVVTVPSSSLGTQTYICNVNHKPSNTKVDKKVEPKSSGSAPAPGSTPVSQTTTAATASVRSTKDPCPSQPPVFPAAKQCPALEVTWPEVEVPLNGTLSLSCVACSRFPNFSILYWLGNGSFIEHLPGRLWEGSTSRERGSTGTQLCKALVLEQLTPALHSTNFSCVLVDPEQVVQRHVVLAQLWAGLRATLPPTQEALPSSHSSPQQQG
light: DIVLTQSPGTLSLSPGETATLSCRASQSVGSNLAWYQQKPGQAPRLLIYGASTGATGVPARFSGSRSGTDFTLTITSLQPEDFATYYCQQYYSFLAKTFGQGTQLEIKRTVAAPSVFIFPPSDEQLKSGTASVVCLLNNFYPREAKVQWKVDNALQSGNSQESVTEQDSKDSTYSLSNTLTLSKADYEKHKVYACEVTHQGLSSPVTKSFNRGES
notes: The IL-18BP part is glycosylated; also called APB-R3 protein
B1 showed a Kd (recombinant human IL-18 [1]) of 0.0609 nM, a koff (recombinant human IL-18 [1]) of 2.48e-05 s⁻¹ and a kon (recombinant human IL-18 [1]) of 406000 M⁻¹ s⁻¹. For the same binder, the “IC50 of inhibition of IL-18-induced IFN-γ production in KG-1 cells” value (recombinant human IL-18 [2]) was 0.0419 nM, the “IC50 (read off the curve); mouse IL-18-induced IFN-γ secretion by mouse CD4+ T cells” value [3] was ~0.4 nM and the Kd (human serum albumin) was 16.8 nM. For the same binder, the koff (human serum albumin) was 0.00157 s⁻¹, the kon (human serum albumin) was 93800 M⁻¹ s⁻¹ and the “fold higher binding affinity than human IL-18BPa (literature KD 399 pM)” value (recombinant human IL-18 [4]) was ~6 fold.
